From patent US20250049888A1, “USE OF THE NEGR1 PROTEIN AND BIOLOGICALLY ACTIVE FRAGMENTS THEREOF IN THE THERAPEUTIC TREATMENT OF ALK-RELATED DISEASES” (FONDAZIONE TELETHON ETS (70%), priority 2021, published 2025)

B1: PepA: first Negr1 IgG-like domain, SEQ ID NO:8, strep-FLAG tagged recombinant protein from HEK293 cells (protein)
chain: VDFPWAAVDNMLVRKGDTAVLRCYLEDGASKGAWLNRSSIIFAGGDKWSVDPRVSISTLNKRDYSLQIQNVDVTDDGPYTCSVQTQHTPRTMQVHL
modifications: strep-FLAG tag; PepA
B2: PepB: Negr1 IgG-like domain, SEQ ID NO:16, strep-FLAG tagged recombinant protein (protein)
chain: PKIYDISNDMTINEGTNVTLTCLATGKPEPVISWRHISPSAKPFENGQYLDIYGITRDQAGEYECSAENDVSFPDVKKVRVI
modifications: strep-FLAG tag; PepB
B3: PepC: Negr1 IgG-like domain, SEQ ID NO:17, strep-FLAG tagged recombinant protein (protein)
chain: APTIQEIKSGTVTPGRSGLIRCEGAGVPPPAFEWYKGEKRLFNGQQGIIIQNFSTRSILTVTNVTQEHFGNYTCVAANKLGTTNASLP
modifications: strep-FLAG tag; PepC

What was measured:
[1] = test system: MCF7 (breast adenocarcinoma); assay: Growth of human cancer-derived cell line, MTT assay; format: cell-based; conditions: 200 ng daily, vs GFP
Method: (§1) The 3-(4,5-dimethylthiazol-2-yl)-2,5-diphenyl tetrazolium bromide (MTT) assay was performed to evaluate culture vitality. N2a cells were cultured in a 96-well plate at a concentration of 5×10^3 cell/cm^2. Treatment condition is indicated in the result section. At the end of the treatment, the MTT solution was added to the cell medium at a final concentration of 0.25 mg/mL. The incubation lasted 30 minutes at 37° C. Next, the medium was removed and the formazan precipitates were collected in DMSO (200 μL). The absorbance was measured at 570 nm using a spectrophotometer (Varioskan LUX, Thermofisher) as a proxy for cell viability. Relative cell viability fold is expressed over the control condition.
(§2) Next, the capability of Negr1 and peptide PepA to halt the growth of human cancer-derived cell lines, namely U87 (glioblastoma), SK-Mel5 (melanoma), MCF7 (breast adenocarcinoma), A549 (adenocarcinoma alveolar basal epithelial cells), and SH-SY5Y (neuroblastoma) was tested. To this aim, each line was treated daily with 200 ng GFP, rNegr1, or PepA. At DIV5, cellular growth was evaluated by MTT assay. […] Such results are in good agreement with the expression of the receptor ALK, that has been experimentally detected in cancer cell lines of ectodermal origin (including small cell lung carcinoma, breast carcinoma, melanoma, neuroblastoma, and glioblastoma) (Dirks et al. 2002).

SH-SY5Y (neuroblastoma) = assay: as above; format: cell-based; conditions: 200 ng daily, vs GFP
Method: as §1, §2

U87 (glioblastoma) = assay: as above; format: cell-based; conditions: 200 ng daily, vs GFP
Method: as §1, §2

SK-Mel5 (melanoma) = assay: as above; format: cell-based; conditions: 200 ng daily, vs GFP
Method: as §1, §2

[2] = test system: A549 (adenocarcinoma alveolar basal epithelial cells); assay: as above; format: cell-based; conditions: 200 ng daily, vs GFP
Method: as §1, §2

MYCN = MYCN protein expression level in N2a cells, western blotting; format: cell-based, murine; conditions: 300 ng/ml daily for 5 days, vs GFP
Method: Protein level and relative phosphorylation was assessed by western blotting. Briefly, upon a wash in PBS, cells were solubilized in lysis buffer (150 mM NaCl, 50 mM HEPES, 0.5% NP40, 1% sodium-deoxycholate). After 1 hour under mild agitation, the lysate was clarified by centrifugation for 20 min at 16,000 g. All experimental procedures were performed at 4° C. Protein concentrations were evaluated via Bradford assay (Bio-Rad, USA). For Western blotting experiments, an equal amount of proteins was diluted with 0.25% 5× Laemmli buffer. The samples were separated on 10% SDS-PAGE gels which were transferred onto nitrocellulose membrane (Sigma-Aldrich) at 80 V for 120 min at 4° C. […] Proteins were detected using the ECL prime detection system (GE Healthcare). […] The optical density of the specific bands was quantified with ImageLab software (Bio Rad).
The inventors monitored whether treatment with rNegr1 or PepA might impact on ALK-MYCN pathway. […] At DIV5, the culture was processed for western blotting and ALK and MYCN protein expression levels were evaluated.
At DIV5, the culture was processed for western-blotting, and ALK and MYCN protein expression was evaluated.

CD34 = assay: Tumor neo-vascularization by CD34 immunofluorescence; format: in vivo, mice; conditions: tumors treated in situ, vs GFP
Method: Tumors were dissected, post-fixed for 2 hours by immersion in 4% PFA, then included in OCT and stored at −80° C. until processing. 14 μm sections were obtained after serial sectioning on Leica cryostat and mounted on Polysine Slides (Thermo Fischer Scientific). The slices were saturated in 2.5% BSA, 10% NGS, 0.2% Triton X-100, PBS 1×, for 1 hour at RT and incubated with the primary antibody O/N at 4° C. (Anti-CD34 antibody [EP373Y], ABCAM, ab81289). After 3 washes in PBS 1×-0.2% Triton X-100 the sections were incubated for 1 h with the conjugated secondary antibody at RT (AffiniPure Goat Anti-Rabbit IgG (H+L) Alexa Fluor 594, Jackson ImmunoResearch, 111-585-003). The slices were then rinsed 3 times in PBS 1×-0.2% Triton X-100, rinsed once in PBS1× and then mounted in water-based mounting media. Sections were kept at 4° C. in the dark until acquisition with a Zeiss Axio Imager M2 equipped with 40× objective.
Cancer growth requires and triggers vascularization. In particular, cancer mass is characterized by the presence of immature vessels decorated by CD34 protein. Thus, the inventors analyzed tumor neo-vascularization by detecting CD34 protein.

[3] = Presence in tumor, liver and kidney by STREP-pulldown after in situ injection; format: in vivo, mice; conditions: after in situ injection of 2 μg every second day, day 9
Method: HEK293 cells transfected with the relative construct were lysed in RIPA buffer (150 mM NaCl, 50 mM HEPES, 0.5% NP40, 1% Sodium-deoxycholate) for one hour at 4° C. and then processed for streptavidin immunoprecipitation. Proteins were eluted from STREP resin in elution buffer (2.5 mM Desthiobiotin, 100 mM Tris-HCL, 150 mM NaCl, 1 mM EDTA) in mild agitation for one hour at 4° C. The protein concentration was measured via standard Bradford assay (Bio-Rad), and protein purity was assessed by SDS-PAGE followed by silver staining. Synthetic peptides were purchased at Genscript Nederland. Mice tissues were lysed in RIPA buffer (150 mM NaCl, 50 mM HEPES, 0.5% NP40, 1% Sodium-deoxycholate, 1 ml/mg of tissue) for one hour at 4° C. and then processed for streptavidin immunoprecipitation. Proteins were eluted from STREP resin in Laemmli buffer.
At day 9 post injection (or earlier in case the tumor reached 2.5 cm^3 volume), the animals were sacrificed and the mice tissues were harvested and analysed for the presence of GFP and PepA.

N2a cells [4] = assay: N2a cell growth, MTT assay; format: cell-based, murine; conditions: 500 ng/ml daily, vs GFP
Method: as §1
At the physiological level, Negr1 exists as a GPI-anchored membrane-bound protein and as a soluble protein released upon metalloprotease cleavage (Sanz et al. 2015; Pischedda and Piccoli 2015). Thus, the inventors studied whether ectopic treatment with soluble recombinant Negr1 (Negr1) might modulate cancer cell growth. […] At DIV5, cellular growth was evaluated by MTT assay.
To further narrow down the minimal biologically active sequence within PepA, the PepA structure was analysed in silico. […] At DIV5, cellular growth was evaluated by MTT assay.

N2a cells [5] = assay: N2a xenograft tumor growth in CD1 nude mice; format: in vivo
Method: 1 million N2a cells were suspended in 150 μl of DMEM high glucose and delivered subcutaneously above the left rear paw in 8-week old nu/nu mice (Charles River) by injection with a micro-syringe (Hamilton). All procedures involving animals were approved by Institutional and National Agencies (authorization 559/2016-PR).
Xenograft mouse models represent an established tool to investigate cancer progression in vivo. To this aim, 1 million N2a cells (naive, clone 3, and clone 11) was injected subcutaneously (s.c.) in immunodeficient CD1 nude mice. Tumor volume was monitored […] by measuring tumor size with a Vernier caliper. Tumor volume was calculated using the ellipsoid formula (length×width×height×0.52).
To further assess the anti-neoplastic activity of PepA, 1 million N2a cells were injected s.c in 6-weeks old CD1 nude mice. When the tumor reached 100 mm^3 volume, 2 μg of GFP or PepA were injected in situ. The treatment was repeated every second day, and tumor growth was monitored daily.
Next, 1 million N2a cells were injected s.c in 6-weeks old nude mice. […] The treatment was repeated every second day and the tumor growth was monitored daily.
Treatment was repeated every second day and tumor growth was monitored daily.
To this aim, 1 million N2a cells were injected s.c in 6-weeks old CD1 nude mice. […] The treatment was repeated every second day and the tumor growth was monitored daily.

ALK = ALK protein expression level in N2a cells, western blotting; format: cell-based, murine; conditions: 300 ng/ml daily for 5 days, vs GFP
Method: Protein level and relative phosphorylation was assessed by western blotting. Briefly, upon a wash in PBS, cells were solubilized in lysis buffer (150 mM NaCl, 50 mM HEPES, 0.5% NP40, 1% sodium-deoxycholate). After 1 hour under mild agitation, the lysate was clarified by centrifugation for 20 min at 16,000 g. All experimental procedures were performed at 4° C. Protein concentrations were evaluated via Bradford assay (Bio-Rad, USA). For Western blotting experiments, an equal amount of proteins was diluted with 0.25% 5× Laemmli buffer. The samples were separated on 10% SDS-PAGE gels which were transferred onto nitrocellulose membrane (Sigma-Aldrich) at 80 V for 120 min at 4° C. […] Antibodies were applied overnight in blocking buffer (20 mM Tris, pH 7.4, 150 mM NaCl, 0.1% Tween 20, and 5% nonfat dry milk). Proteins were detected using the ECL prime detection system (GE Healthcare). The ECL signals were acquired with the imaging ChemiDoc Touch system (Bio Rad Laboratory Italy, Segrate, Italy). The optical density of the specific bands was quantified with ImageLab software (Bio Rad).

N2a cells [6] = assay: N2a proliferation, cell number at DIV5; format: cell-based, murine; conditions: 200 ng daily, vs GFP
Method: Next, 10,000 naive N2a cells were seeded and treated daily with 200 ng Negr1, PepA, PepB, PepC, or GFP. At DIV5, cell number was evaluated.

Row | Molecule | growth of MCF7 cells (MTT) at DIV5 [1] | growth of SH-SY5Y cells (MTT) at DIV5 (SH-SY5Y (neuroblastoma)) | growth of U87 cells (MTT) at DIV5 (U87 (glioblastoma)) | growth of SK-Mel5 cells (MTT) at DIV5 (SK-Mel5 (melanoma)) | growth of A549 cells (MTT) at DIV5 [2] | MYCN protein level (MYCN) | tumor vascularization (total area stained by CD34 and average vessel area) (CD34) | presence in mice tissues (STREP-pulldown) [3] | N2a growth (MTT) at DIV5 (N2a cells [4]) | tumor growth (tumor volume, fold over day 1) (N2a cells [5]; 2 μg in situ every second day, vs GFP) | tumor growth (tumor volume, fold over day 1) (N2a cells [5]; 10 μg in situ every second day, vs PEG-scramble peptide) | ALK protein level (ALK) | N2a proliferation (cell number) at DIV5 (N2a cells [6])
1 | B1 | significantly reduce the growth | significantly reduce the growth | significantly reduce the growth | significantly reduce the growth | significantly reduce the growth | robust reduction of ALK and MYCN protein levels | strongly reduced vascularization | present in the tumor, liver, and kidney | significantly reduced N2a growth | robust growth reduction in tumor | robust growth reduction in tumor | robust reduction of ALK and MYCN protein levels | significantly reduced N2a proliferation
2 | B2 | – | – | – | – | – | – | – | – | – | – | – | – | did not
3 | B3 | – | – | – | – | – | – | – | – | – | – | – | – | did not
